Measured values published in the supplement of paper PMC10724198.
± gives the standard deviation of the averaged measurements.

Key:
Saccharomyces cerevisiae [1] = assay: protein stability index of tFT-peptide fusion (C-terminal peptide) (PSI (0-1 scale)); higher = more stable (slower turnover)
Description: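 MPS profiling in S. cerevisiae of the tFT-X12 degron library: putative degron peptides plus stable controls, 12 aa, fused to the C-terminus of a sfGFP-mCherry timer. Cells are FACS-sorted into 8 mCherry/sfGFP bins and deep-sequenced. PSI runs from 0 (unstable) to 1 (stable). Backgrounds are wild type, das1Δ and doa10Δ at 30 °C, and wild type, das1Δ, cdc34-1 and cdc53-1 at 37 °C; 2-3 technical replicates each.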

Saccharomyces cerevisiae [2] = assay: as above; settings: genetic background: wild type; temperature: 30 C
[3] = genetic background: cdc34-1, temperature: 37 C
[4] = genetic background: cdc53-1, temperature: 37 C
[5] = genetic background: das1 deletion, temperature: 30 C
[6] = genetic background: das1 deletion, temperature: 37 C
[7] = genetic background: doa10 deletion, temperature: 30 C
[8] = genetic background: wild type, temperature: 30 C
[9] = genetic background: wild type, temperature: 37 C
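Note: PSI is a weighted mean of sequencing reads over stability bins, variants kept only with over 10 reads, mCherry proximal and sfGFP distal, peptide attached via GGGS linker.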

Sequence	protein stability index (Saccharomyces cerevisiae [1]; [3])	protein stability index (Saccharomyces cerevisiae [1]; [4])	protein stability index (Saccharomyces cerevisiae [1]; [5])	protein stability index (Saccharomyces cerevisiae [1]; [6])	protein stability index (Saccharomyces cerevisiae [1]; [7])	protein stability index (Saccharomyces cerevisiae [1]; [8])	protein stability index (Saccharomyces cerevisiae [1]; [9])	protein stability index (Saccharomyces cerevisiae [2])
QITIYPIPLARF	0.951 ± 0.015	0.937 ± 0.0099	0.807 ± 0.015	0.88 ± 0.0098	0.808 ± 0.027	0.867 ± 0.015	0.8924 ± 0.0076	0.79 ± 0.065
QPSSFDMLGLLL	0.6791 ± 0.0055	0.738 ± 0.019	0.654 ± 0.0092	0.752 ± 0.023	0.671 ± 0.053	0.663 ± 0.02	0.709 ± 0.0089	0.742 ± 0.049
RFKEKVSIIHKQ	0.6446 ± 0.0022	0.665 ± 0.061	0.693 ± 0.04	0.74 ± 0.017	0.11 ± 0.0081	0.106 ± 0.046	0.12487 ± 0.0001	0.207 ± 0.054
RGYATTALHWVS	0.668 ± 0.038	0.7695 ± 0.0075	0.6757 ± 0.002	0.7395 ± 0.0034	0.362 ± 0.0075	0.4 ± 0.022	0.596 ± 0.015	0.486 ± 0.019
RHRGHVRLALLN	0.7 ± 0.079	0.845 ± 0.041	0.772 ± 0.013	0.791 ± 0.061	0.233 ± 0.025	0.26 ± 0.029	0.381 ± 0.017	0.396 ± 0.0095
RICCLFILLFCL	0.439 ± 0.043	0.464 ± 0.024	0.396 ± 0.03	0.477 ± 0.0084	0.422 ± 0.0089	0.365 ± 0.028	0.412 ± 0.019	0.423 ± 0.057
RIEGTLTARTAF	0.736 ± 0.069	0.7639 ± 0.0033	0.635 ± 0.033	0.744 ± 0.013	0.65 ± 0.01	0.66 ± 0.0097	0.709 ± 0.00092	0.579 ± 0.18
RITGCWKTYKMQ	0.6341 ± 0.00082	0.721 ± 0.0019	0.615 ± 0.0094	0.758 ± 0.055	0.14145 ± 6.9e-05	0.164 ± 0.026	0.342 ± 0.073	0.308 ± 0.055
RKNIKISKAGIG	0.283 ± 0.0034	0.394 ± 0.0056	0.343 ± 0.012	0.377 ± 0.012	0.31 ± 0.0041	0.287 ± 0.021	0.332 ± 0.0074	0.279 ± 0.1
RKRTILVIIVVK	0.181 ± 0.031	0.33 ± 0.042	0.234 ± 0.045	0.461 ± 0.05	0.186 ± 0.011	0.217 ± 0.046	0.395 ± 0.052	0.338 ± 0.061
RKVWSLCWFVHL	0.49 ± 0.071	0.617 ± 0.012	0.512 ± 0.012	0.65 ± 0.008	0.0695 ± 0.0078	0.0716 ± 0.015	0.0795 ± 0.0077	0.116 ± 0.0023
RLGRYSIIHCLA	0.295 ± 0.023	0.459 ± 0.044	0.327 ± 0.029	0.52 ± 0.021	0.0877 ± 0.015	0.102 ± 0.028	0.0944 ± 0.058	0.15 ± 0.0068
RLHCFSPILCPI	0.6063 ± 0.0042	0.576 ± 0.0073	0.434 ± 0.029	0.59601 ± 0.00033	0.402 ± 0.021	0.436 ± 0.017	0.579 ± 0.036	0.493 ± 0.012
RLIARFKILRCI	0.259 ± 0.012	0.588 ± 0.011	0.559 ± 0.012	0.635 ± 0.0085	0.0618 ± 0.0034	0.0662 ± 0.0038	0.0702 ± 0.0014	0.0979 ± 0.064
RLINCIYVLMLP	0.567 ± 0.042	0.569 ± 0.0072	0.412 ± 0.029	0.606 ± 0.0037	0.261 ± 0.015	0.274 ± 0.033	0.513 ± 0.024	0.398 ± 0.029
RLLRGDRMVICS	0.5515 ± 0.0014	0.565 ± 0.057	0.395 ± 0.039	0.615 ± 0.0066	0.3601 ± 0.0008	0.375 ± 0.022	0.582 ± 0.0066	0.433 ± 0.017
RLMLSWLALRRC	0.617 ± 0.058	0.665 ± 0.015	0.601 ± 0.036	0.689 ± 0.02	0.351 ± 0.026	0.344 ± 0.068	0.575 ± 0.0095	0.476 ± 0.0067
RLPYSLTFFLLC	0.414 ± 0.0067	0.5789 ± 0.0027	0.484 ± 0.038	0.576 ± 0.0034	0.07289 ± 0.00032	0.0628 ± 0.018	0.0714 ± 0.0077	0.134 ± 0.009
RLVCPFYIACVW	0.623 ± 0.012	0.649 ± 0.01	0.509 ± 0.016	0.588 ± 0.014	0.468 ± 0.015	0.488 ± 0.022	0.567 ± 0.031	0.516 ± 0.027
RNCSFRRIQLAM	0.651 ± 0.063	0.699 ± 0.032	0.594 ± 0.0073	0.715 ± 0.0059	0.162 ± 0.0031	0.19 ± 0.022	0.298 ± 0.0095	0.362 ± 0.045

Sequence	protein stability index (Saccharomyces cerevisiae [1]; [3])	protein stability index (Saccharomyces cerevisiae [1]; [4])	protein stability index (Saccharomyces cerevisiae [1]; [5])	protein stability index (Saccharomyces cerevisiae [1]; [6])	protein stability index (Saccharomyces cerevisiae [1]; [7])	protein stability index (Saccharomyces cerevisiae [1]; [8])	protein stability index (Saccharomyces cerevisiae [1]; [9])	protein stability index (Saccharomyces cerevisiae [2])
RNKIWCTVIMRL	0.51 ± 0.042	0.537 ± 0.0088	0.453 ± 0.036	0.597 ± 0.02	0.229 ± 0.01	0.234 ± 0.046	0.396 ± 0.02	0.4002 ± 0.0026
RPAVVPPPFAPL	0.652 ± 0.032	0.724 ± 0.023	0.707 ± 0.0089	0.7172 ± 0.0055	0.708 ± 0.018	0.695 ± 0.01	0.6996 ± 0.003	0.76 ± 0.041
RQALYFLMICGL	0.508 ± 0.024	0.564 ± 0.023	0.407 ± 0.039	0.545 ± 0.0071	0.29391 ± 6e-05	0.318 ± 0.019	0.459 ± 0.027	0.421 ± 0.0045
RRIKIRKQEYIS	0.572 ± 0.13	0.696 ± 0.04	0.684 ± 0.029	0.719 ± 0.018	0.185 ± 0.0051	0.217 ± 0.023	0.459 ± 0.021	0.313 ± 0.029
RRRRHVDHSTQR	0.495 ± 0.04	0.572 ± 0.0085	0.542 ± 0.011	0.582 ± 0.011	0.557 ± 0.038	0.554 ± 0.045	0.5704 ± 0.0037	0.4737 ± 0.0036
RTWLHLVVPVWG	0.213 ± 0.026	0.265 ± 0.044	0.222 ± 0.034	0.3778 ± 0.0024	0.19 ± 0.0051	0.228 ± 0.037	0.318 ± 0.014	0.3367 ± 0.0022
RVGWVVVLGCVG	0.545 ± 0.04	0.548 ± 0.014	0.401 ± 0.027	0.578 ± 0.012	0.366 ± 0.009	0.397 ± 0.015	0.55 ± 0.014	0.479 ± 0.0089
RVHFLIVFLCRF	0.441 ± 0.012	0.4927 ± 0.0037	0.369 ± 0.011	0.526 ± 0.012	0.398 ± 0.024	0.361 ± 0.014	0.472 ± 0.021	0.399 ± 0.051
RVSIIYLGVLIS	0.174 ± 0.012	0.297 ± 0.025	0.26 ± 0.024	0.436 ± 0.0092	0.0604 ± 0.011	0.073 ± 0.013	0.0592 ± 0.036	0.112 ± 0.025
RVTYWKAVLVRL	0.47 ± 0.07	0.461 ± 0.022	0.44 ± 0.031	0.6 ± 0.017	0.108 ± 0.025	0.109 ± 0.025	0.13 ± 0.0084	0.212 ± 0.016
RYCVVDISAFCD	0.489 ± 0.017	0.576 ± 0.021	0.368 ± 0.029	0.5947 ± 0.0057	0.37 ± 0.017	0.388 ± 0.026	0.573 ± 0.024	0.465 ± 0.0094
RYLCLTPALYLS	0.45 ± 0.014	0.5588 ± 0.0053	0.509 ± 0.027	0.621 ± 0.0072	0.125 ± 0.017	0.113 ± 0.012	0.157 ± 0.016	0.151 ± 0.11
SCFRFFFLFLFF	0.192 ± 0.011	0.197 ± 0.0042	0.282 ± 0.024	0.361 ± 0.016	0.4322 ± 0.00071	0.238 ± 0.043	0.312 ± 0.0097	0.322 ± 0.052
SCFRSLAVYFLC	0.333 ± 0.025	0.624 ± 0.02	0.603 ± 0.033	0.678 ± 0.01	0.0706 ± 0.0018	0.07 ± 0.015	0.0763 ± 0.0025	0.155 ± 0.032
SCLVLDYCFSLV	0.649 ± 0.037	0.631 ± 0.012	0.419 ± 0.029	0.643 ± 0.0034	0.446 ± 0.019	0.435 ± 0.02	0.613 ± 0.0062	0.442 ± 0.016
SCYDYVILLQLS	0.506 ± 0.051	0.65547 ± 0.00031	0.435 ± 0.04	0.619 ± 0.025	0.178 ± 0.01	0.213 ± 0.042	0.393 ± 0.0047	0.304 ± 0.026
SFFFTLLICFLF	0.161 ± 0.017	0.107 ± 0.0062	0.234 ± 0.0085	0.312 ± 0.0082	0.26 ± 0.021	0.166 ± 0.028	0.244 ± 0.018	0.253 ± 0.011
SFLLGCCWLVLC	0.222 ± 0.04	0.309 ± 0.0045	0.27 ± 0.03	0.3934 ± 0.0034	0.1353 ± 0.00058	0.116 ± 0.0073	0.127 ± 0.0028	0.155 ± 0.0099
SFLLVWCLLPEI	0.364 ± 0.056	0.479 ± 0.096	0.309 ± 0.029	0.4729 ± 0.0046	0.2695 ± 0.0018	0.299 ± 0.035	0.451 ± 0.033	0.415 ± 0.0064
